Assay results from PMC10397247.
Like-named read-outs stand apart in the source and are kept apart here.

Legend:
Test in all cases: two-hybrid library CCmax;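 note: natural log of median RNA to DNA barcode read ratio; higher means stronger binding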
4H_BCR = molecular target: T1, 4H_BCR; conditions: mean of both orientations
T1 chain: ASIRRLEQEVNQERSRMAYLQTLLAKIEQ

4H3381-AA = molecular target: T2, 4H3381-AA; conditions: mean of both orientations
T2 chain: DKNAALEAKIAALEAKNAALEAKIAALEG

4H_GCN4 = molecular target: 4H_GCN4
4H406-AA = molecular target: T3, 4H406-AA; conditions: mean of both orientations
T3 chain: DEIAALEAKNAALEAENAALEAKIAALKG

4H3438-AA = molecular target: T4, 4H3438-AA; conditions: mean of both orientations
T4 chain: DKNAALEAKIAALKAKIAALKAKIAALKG

4H_APH = molecular target: T5, 4H_APH
T5 chain: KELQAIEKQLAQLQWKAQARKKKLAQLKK

4H3493-AA = molecular target: T6, 4H3493-AA; conditions: mean of both orientations
T6 chain: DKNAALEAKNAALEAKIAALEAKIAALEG

4H56-AA = molecular target: T7, 4H56-AA; conditions: mean of both orientations
T7 chain: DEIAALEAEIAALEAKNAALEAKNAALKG

4H347-AA = molecular target: T8, 4H347-AA; conditions: mean of both orientations
T8 chain: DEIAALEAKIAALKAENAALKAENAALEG

4H3001-AA = molecular target: T9, 4H3001-AA
T9 chain: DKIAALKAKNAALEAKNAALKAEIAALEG

4H3015-AA = molecular target: T10, 4H3015-AA; conditions: mean of both orientations
T10 chain: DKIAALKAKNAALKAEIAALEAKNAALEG

4H452-AA = molecular target: T11, 4H452-AA; conditions: mean of both orientations
T11 chain: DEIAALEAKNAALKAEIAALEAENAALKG

4H688-AA = molecular target: T12, 4H688-AA; conditions: mean of both orientations
T12 chain: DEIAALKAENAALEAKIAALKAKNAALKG

4H3340-AA = molecular target: T13, 4H3340-AA; conditions: mean of both orientations
T13 chain: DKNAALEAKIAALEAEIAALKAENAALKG

4H376-AA = molecular target: T14, 4H376-AA; conditions: mean of both orientations
T14 chain: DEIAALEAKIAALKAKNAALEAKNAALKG

4H3073-AA = molecular target: T15, 4H3073-AA; conditions: mean of both orientations
T15 chain: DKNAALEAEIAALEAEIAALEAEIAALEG

4H963-AA = molecular target: T16, 4H963-AA; conditions: mean of both orientations
T16 chain: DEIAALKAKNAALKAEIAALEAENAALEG

GCN2_T = molecular target: GCN2_T
4H2961-AA = molecular target: T17, 4H2961-AA; conditions: mean of both orientations
T17 chain: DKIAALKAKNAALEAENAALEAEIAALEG

4H432-AA = molecular target: T18, 4H432-AA; conditions: mean of both orientations
T18 chain: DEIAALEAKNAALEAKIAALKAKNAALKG

4H3915-AA = molecular target: T19, 4H3915-AA; conditions: mean of both orientations
T19 chain: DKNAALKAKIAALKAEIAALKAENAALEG

4H3782-AA = molecular target: T20, 4H3782-AA; conditions: mean of both orientations
T20 chain: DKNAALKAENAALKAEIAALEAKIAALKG

4H3974-AA = molecular target: T21, 4H3974-AA; conditions: mean of both orientations
T21 chain: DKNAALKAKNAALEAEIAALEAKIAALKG

4H2774-AA = molecular target: T22, 4H2774-AA
T22 chain: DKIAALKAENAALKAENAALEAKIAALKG

4H2931-AA = molecular target: T23, 4H2931-AA; conditions: mean of both orientations
T23 chain: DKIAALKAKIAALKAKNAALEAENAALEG

4H3449-AA = molecular target: T24, 4H3449-AA; conditions: mean of both orientations
T24 chain: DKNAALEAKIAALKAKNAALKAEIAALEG

4H464-AA = molecular target: T25, 4H464-AA; conditions: mean of both orientations
T25 chain: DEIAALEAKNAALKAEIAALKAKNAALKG

4H3969-AA = molecular target: T26, 4H3969-AA; conditions: mean of both orientations
T26 chain: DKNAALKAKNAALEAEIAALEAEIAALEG

4H63-AA = molecular target: T27, 4H63-AA; conditions: mean of both orientations
T27 chain: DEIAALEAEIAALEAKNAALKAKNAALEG

4H3777-AA = molecular target: T28, 4H3777-AA; conditions: mean of both orientations
T28 chain: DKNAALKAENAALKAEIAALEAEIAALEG

4H3049-AA = molecular target: T29, 4H3049-AA; conditions: mean of both orientations
T29 chain: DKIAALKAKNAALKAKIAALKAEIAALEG

4H380-AA = molecular target: T30, 4H380-AA; conditions: mean of both orientations
T30 chain: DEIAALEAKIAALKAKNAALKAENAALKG

4H3939-AA = molecular target: T31, 4H3939-AA; conditions: mean of both orientations
T31 chain: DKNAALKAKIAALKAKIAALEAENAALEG

4H3129-AA = molecular target: T32, 4H3129-AA; conditions: mean of both orientations
T32 chain: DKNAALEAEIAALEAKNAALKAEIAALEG

4H3595-AA = molecular target: T33, 4H3595-AA; conditions: mean of both orientations
T33 chain: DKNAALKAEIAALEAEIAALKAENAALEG

4H2903-AA = molecular target: T34, 4H2903-AA; conditions: mean of both orientations
T34 chain: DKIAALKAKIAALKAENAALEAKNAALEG

4H2947-AA = molecular target: T35, 4H2947-AA; conditions: mean of both orientations
T35 chain: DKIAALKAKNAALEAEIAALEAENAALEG

4H483-AA = molecular target: T36, 4H483-AA; conditions: mean of both orientations
T36 chain: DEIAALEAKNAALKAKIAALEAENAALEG

4H3414-AA = molecular target: T37, 4H3414-AA; conditions: mean of both orientations
T37 chain: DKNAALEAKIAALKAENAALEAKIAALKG

4H446-AA = molecular target: T38, 4H446-AA; conditions: mean of both orientations
T38 chain: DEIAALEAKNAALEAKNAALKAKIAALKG

4H3619-AA = molecular target: T39, 4H3619-AA; conditions: mean of both orientations
T39 chain: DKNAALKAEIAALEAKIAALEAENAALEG

4H3629-AA = molecular target: T40, 4H3629-AA; conditions: mean of both orientations
T40 chain: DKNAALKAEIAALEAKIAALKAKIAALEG

4H3094-AA = molecular target: T41, 4H3094-AA; conditions: mean of both orientations
T41 chain: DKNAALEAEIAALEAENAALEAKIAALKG

4H324-AA = molecular target: T42, 4H324-AA; conditions: mean of both orientations
T42 chain: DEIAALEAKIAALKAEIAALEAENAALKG

4H341-AA = molecular target: T43, 4H341-AA; conditions: mean of both orientations
T43 chain: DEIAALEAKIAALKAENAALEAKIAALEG

APC6108-AA = molecular target: T44, APC6108-AA; conditions: mean of both orientations
T44 chain: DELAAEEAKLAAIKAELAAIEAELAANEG

APC1434-AA = molecular target: T45, APC1434-AA; conditions: mean of both orientations
T45 chain: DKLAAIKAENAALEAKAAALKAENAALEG

APC1015-AA = molecular target: T46, APC1015-AA; conditions: mean of both orientations
T46 chain: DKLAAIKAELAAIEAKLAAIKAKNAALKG

APC3645-AA = molecular target: T47, APC3645-AA; conditions: mean of both orientations
T47 chain: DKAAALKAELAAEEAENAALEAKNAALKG

APC8191-AA = molecular target: T48, APC8191-AA; conditions: mean of both orientations
T48 chain: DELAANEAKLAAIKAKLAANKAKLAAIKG

APC5383-AA = molecular target: T49, APC5383-AA; conditions: mean of both orientations
T49 chain: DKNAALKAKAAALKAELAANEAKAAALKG

APC9096-AA = molecular target: T50, APC9096-AA; conditions: mean of both orientations
T50 chain: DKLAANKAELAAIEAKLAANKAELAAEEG

APC7099-AA = molecular target: T51, APC7099-AA; conditions: mean of both orientations
T51 chain: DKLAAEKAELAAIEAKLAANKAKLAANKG

APC8910-AA = molecular target: T52, APC8910-AA; conditions: mean of both orientations
T52 chain: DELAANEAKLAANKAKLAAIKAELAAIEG

APC9319-AA = molecular target: T53, APC9319-AA; conditions: mean of both orientations
T53 chain: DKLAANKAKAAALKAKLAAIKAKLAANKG

APC2405-AA = molecular target: T54, APC2405-AA; conditions: mean of both orientations
T54 chain: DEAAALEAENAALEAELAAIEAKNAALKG

APC4011-AA = molecular target: T55, APC4011-AA; conditions: mean of both orientations
T55 chain: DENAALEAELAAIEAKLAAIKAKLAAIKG

APC4436-AA = molecular target: T56, APC4436-AA; conditions: mean of both orientations
T56 chain: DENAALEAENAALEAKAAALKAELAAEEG

APC2237-AA = molecular target: T57, APC2237-AA; conditions: mean of both orientations
T57 chain: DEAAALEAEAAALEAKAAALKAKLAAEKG

APC4264-AA = molecular target: T58, APC4264-AA
T58 chain: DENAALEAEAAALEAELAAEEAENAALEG

APC232-AA = molecular target: T59, APC232-AA; conditions: mean of both orientations
T59 chain: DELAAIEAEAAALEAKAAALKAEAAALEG

Sequence of 4H_GCN4 (chain, as listed by the source): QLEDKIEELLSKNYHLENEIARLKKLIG

B1: 4H3001-AA (peptide)
chain: DKIAALKAKNAALEAKNAALKAEIAALEG
4H_BCR
  interaction score: -2.15
4H3381-AA
  interaction score: -1.43
4H_GCN4; mean of both orientations
  interaction score: -2.43
4H406-AA
  interaction score: 2.27
4H3438-AA
  interaction score: -1.83
4H_APH
  interaction score: -2
4H3493-AA
  interaction score: -1.38
4H56-AA
  interaction score: -1.87
4H347-AA
  interaction score: -2.08
4H3001-AA
  interaction score: -1.82
4H3015-AA
  interaction score: -1.86
4H452-AA
  interaction score: -1.76
4H688-AA
  interaction score: -1.46
4H3340-AA
  interaction score: -1.44
4H376-AA
  interaction score: -1.69
4H3073-AA
  interaction score: -0.938
4H963-AA
  interaction score: -1.94
GCN2_T
  interaction score: -1.9

B2: 4H2774-AA (peptide)
chain: DKIAALKAENAALKAENAALEAKIAALKG
4H2961-AA
  interaction score: -0.737
4H432-AA
  interaction score: -1.57
4H_BCR
  interaction score: -0.289
4H3915-AA
  interaction score: -1.36
4H3782-AA
  interaction score: -1.14
4H3381-AA
  interaction score: -1.61
4H3974-AA
  interaction score: -0.913
4H2774-AA
  interaction score: 1.65
4H2931-AA
  interaction score: -1.98
4H_GCN4
  interaction score: -2.24
4H3449-AA
  interaction score: -0.756
4H464-AA
  interaction score: -1.18
4H3969-AA
  interaction score: -1.72
4H406-AA
  interaction score: -0.207
4H63-AA
  interaction score: -1.37
4H3777-AA
  interaction score: -0.668
4H3049-AA
  interaction score: 1.59
4H380-AA
  interaction score: -1.68
4H3939-AA
  interaction score: -1.9
4H3129-AA
  interaction score: -0.715
4H3595-AA
  interaction score: -1.57
4H3438-AA
  interaction score: -1.63
4H_APH; mean of both orientations
  interaction score: -1.61
4H3493-AA
  interaction score: -1.56
4H56-AA
  interaction score: -1.47
4H2903-AA
  interaction score: -1.73
4H2947-AA
  interaction score: -1.7
4H347-AA
  interaction score: -0.921
4H3001-AA; mean of both orientations
  interaction score: 0.364
4H3015-AA
  interaction score: -1.48
4H483-AA
  interaction score: -1.21
4H3414-AA
  interaction score: -1.5
4H446-AA
  interaction score: 1.28
4H452-AA
  interaction score: -0.902
4H3619-AA
  interaction score: -1.75
4H688-AA
  interaction score: -0.923
4H3340-AA
  interaction score: -1.59
4H376-AA
  interaction score: -2.64
4H3629-AA
  interaction score: -1.34
4H3094-AA
  interaction score: -0.282
4H324-AA
  interaction score: -1.75
4H341-AA
  interaction score: 0.103
4H3073-AA
  interaction score: -1.43
4H963-AA
  interaction score: -0.529
GCN2_T
  interaction score: -1.68

B3: 4H807-AA (peptide)
chain: DEIAALKAKIAALEAKIAALEAKNAALEG
APC6108-AA
  interaction score: -1.43
APC1434-AA
  interaction score: -1.82
APC1015-AA
  interaction score: -0.714
APC3645-AA
  interaction score: -1.3
APC8191-AA
  interaction score: -2.1
APC5383-AA
  interaction score: -1.89
APC9096-AA
  interaction score: -1.75
APC7099-AA
  interaction score: -1.32
APC8910-AA
  interaction score: -1.59
APC9319-AA
  interaction score: -1.71
APC2405-AA
  interaction score: -1.49
APC4011-AA
  interaction score: 1.45
APC4436-AA
  interaction score: -1.65
APC2237-AA
  interaction score: -1.21
APC4264-AA
  interaction score: -1.72
APC232-AA
  interaction score: -1.73
